Results published in patent US10174359.

How the values were obtained:
[1] = molecular target: cyclin B1-cdk1 complex (UniProt P14635)
[2] = tested on: separase sensor, wild-type Scc1 (142-467), histone H2B localization-targeting sequence

Chain of cyclin B1-cdk1 complex (P14635 whole entry, looked up, one chain of several): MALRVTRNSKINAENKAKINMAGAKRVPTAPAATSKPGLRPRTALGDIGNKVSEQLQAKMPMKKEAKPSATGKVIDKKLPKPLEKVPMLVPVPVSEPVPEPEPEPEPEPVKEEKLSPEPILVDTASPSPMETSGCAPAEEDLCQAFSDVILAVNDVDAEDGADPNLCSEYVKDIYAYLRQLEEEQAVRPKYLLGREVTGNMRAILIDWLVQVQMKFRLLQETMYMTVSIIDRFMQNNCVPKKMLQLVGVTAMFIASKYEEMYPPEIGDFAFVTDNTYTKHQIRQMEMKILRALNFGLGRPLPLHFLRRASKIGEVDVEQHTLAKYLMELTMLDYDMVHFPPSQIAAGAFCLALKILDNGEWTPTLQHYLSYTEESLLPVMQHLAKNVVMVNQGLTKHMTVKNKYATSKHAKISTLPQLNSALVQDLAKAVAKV

## myc-tagged mouse separase, wild-type (WT)
[1]
  cdk1 activity (histone H1 kinase assay): cdk1 activity was markedly inhibited in the separase-bound fraction
  kinase activity (histone H1 as a substrate): in the separase-bound fraction, kinase activity is inhibited (separase-bound cyclin B1-cdk1)

## separase
[2]
  cleavage of the sensor (immunoblot with anti-GFP antibody, FIG. 2D): The separase sensor localized in chromosome in the cells in anaphase is cleaved
